Test results as given in patent US5801037A, “Expression of signal-peptide-free staphylokinases” (medac Gesellschaft fur klinische spezialpraparate mbH, priority 1991, dated 1998).

B1: SAK42D: signal-peptide-free mature native staphylokinase from S. aureus phage 42D, 136 amino acids, Seq. Id. No. 1 (protein)
chain: MSSSFDKGKYKKGDDASYFEPTGPYLMVNVTGVDGKRNELLSPRYVEFPIKPGTTLTKEKIEYYVEWALDATAYKEFRVVELDPSAKIEVTYYDKNKKKEETKSFPITEKGFVVPDLSEHIKNPGFNLITKVVIEKK
B2: SAK fragment form N14ΔSAK42D (other)
chain: MASYFEPTGPYLMVNVTGVDGKRNELLSPRYVEFPIKPGTTLTKEKIEYYVEWALDATAYKEFRVVELDPSAKIEVTYYDKNKKKEETKSFPITEKGFVVPDLSEHIKNPGFNLITKVVIEKK
B3: SAK fragment form N10ΔSAK42D (other)
chain: MKGDDASYFEPTGPYLMVNVTGVDGKRNELLSPRYVEFPIKPGTTLTKEKIEYYVEWALDATAYKEFRVVELDPSAKIEVTYYDKNKKKEETKSFPITEKGFVVPDLSEHIKNPGFNLITKVVIEKK

Assays:
plasminogen [1] = target: plasminogen
plasminogen [2] = assay: Determination of the specific activity of the SAK polypeptides (plasmin release from plasminogen, Chromozym-PL); format: biochemical; settings: plasminogen in excess, activation 10 minutes at 25° C., 405 nm
Method: The specific activity of a SAK form is defined as that quantity of plasmin (μmol) which is released per minute by 1 μmol of this SAK polypeptide from plasminogen (used in excess).
The protein content of the pertinent SAK polypeptide-containing parent solutions is established by means of the Bio-Rad Protein Assay (Bio-Rad, Munich) using bovine serum albumin as standard protein.
The determination of the plasmin release by the SAK polypeptides is carried out in two steps:
Firstly, dilution series (1 ng to 500 ng) of the SAK polypeptides are produced in 100 mM tris (pH 8.0). A reaction mixture, consisting of 30 μl plasminogen solution 20 mg plasminogen (Fluka), dissolved in 1 ml H2 O, 150 μl 100 mM tris buffer (pH 5.0) and 10 μl activator solution (dilution series SAK polypeptides) is then prepared. This mixture is incubated for 10 minutes at 25° C. […]
Reference samples, calibration samples and the actual measurement samples (each 250 μl) are pipetted into a microtitre plate with 96 cavities (flat bottom) and the adsorption at 405 nm is measured in a multi-channel photometer.
The quantity of plasmin which is released per minute by the SAK polypeptides contained in the starting solutions (dilution samples) can be calculated from the absorption values of the measured samples, taking into account the absorption values of the plasmin calibration series and of the reference samples. […]

[3] = target: human plasminogen isolated from human plasma (human, UniProt P00747); assay: analytical affinity chromatography on immobilized human plasminogen, 16° C., 0.1M tris-HCl pH 7.3

Molecule | specific activity in µmol plasmin/(µmol SAK × min) (µmol plasmin/(µmol SAK × min)) (plasminogen [1]) | further results
SAK fragment form N10ΔSAK42D | 22.7 | –
SAK fragment form N14ΔSAK42D | 8.1 | –
mature native staphylokinase SAK42D | 16.2 | –
artificial allelic SAK form SAKM26L | 36.6 | –
artificial allelic SAK form SAKM26C | 21.1 | –
B1 | – | specific activity (plasminogen [2]): 16.2 μmol plasmin/(μmol SAK × min)
B2 | – | Kd [3]: 4.4 µM
B3 | – | Kd [3]: 2.21 µM
